Measurements as given in article PMC7917791.

Molecular target: HAP1 phage capsid (T4 phage mutant with a nonsense mutation in the hoc gene, no functional Hoc protein on the capsid) (T4 phage (mutant HAP1))
Experiment: SEC; RFP-Hoc and new HAP1 virions produced together in infected E. coli; filtered lysate on Sepharose 4B (2.5 x 95 cm), 0.063 M phosphate buffer pH 7.2, 0.3 mL/min; phages eluted in the highest molecular weight fraction (A), non-incorporated RFP-Hoc in fraction B; fluorescence and titer of the fractions measured

Sequence of RFP-Hoc fusion (red fluorescent protein fused to the N-terminal end of the T4 phage Hoc protein) (P18056 whole entry, the tested form may be a part): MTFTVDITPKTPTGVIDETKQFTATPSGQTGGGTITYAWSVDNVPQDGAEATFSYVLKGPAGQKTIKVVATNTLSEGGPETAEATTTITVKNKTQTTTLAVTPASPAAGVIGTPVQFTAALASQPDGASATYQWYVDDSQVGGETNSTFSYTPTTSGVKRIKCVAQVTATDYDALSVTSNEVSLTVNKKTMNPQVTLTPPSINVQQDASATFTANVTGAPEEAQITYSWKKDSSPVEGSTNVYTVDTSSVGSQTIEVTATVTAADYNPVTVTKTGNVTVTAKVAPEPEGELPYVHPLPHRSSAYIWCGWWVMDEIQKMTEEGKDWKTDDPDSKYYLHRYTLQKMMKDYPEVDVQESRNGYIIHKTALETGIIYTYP

Question: With “RFP-Hoc fusion (red fluorescent protein fused to the N-terminal end of the T4 phage Hoc protein) (from UniProt P18056 1-376) (natural protein)” as the substance, how does the fluorescence of the phage fraction A after size exclusion chromatography read?
Answer: The fluorescence of the phage fraction A after size exclusion chromatography was 5.12e+06 a.u.
